# Assay results reported in patent US20080152663A1.
# Biological target: B61/B51 (on B61/B51-matched allogeneic LCL)
# Experiment: cell-based or functional assay
binder,measurement,value
QEPLYPVQVSSADARLMVFDKTEGTWRLLCSSRSNAR [hepsin peptide 48-84 (residues 48-84 of hepsin)],Percent cell killing; B61/B51-matched allogeneic LCL + peptide; CD8+ T cells of donor,27.1%
